Experimental findings from ChEMBL document CHEMBL1145519, “Exploitation of structural and regulatory diversity in glutamate racemases” (Nature, 2007) are described below.

Substrate in series [1]: N[C@@H](CCC(=O)O)C(=O)O
The note with it: Helicobacter pylori.

Substrate in series [2]: N[C@H](CCC(=O)O)C(=O)O
The note with it: Helicobacter pylori.

Substrate in series [3]: N[C@@H](CCC(=O)O)C(=O)O
Particulars: Helicobacter pylori. This is another data set of the same source.

Substrate in series [4]: N[C@H](CCC(=O)O)C(=O)O
The note with it: Helicobacter pylori. This is another data set of the same source.

Substrate in series [5]: N[C@@H](CCC(=O)O)C(=O)O
The note with it: Helicobacter pylori. This is another data set of the same source.

Substrate in series [6]: N[C@H](CCC(=O)O)C(=O)O
The note with it: Helicobacter pylori. The source holds these as a separate data set.

Substrate in series [7]: N[C@@H](CCC(=O)O)C(=O)O
As to the kind of experiment: (§1) Activity of Enterococcus faecalis MurI.

Substrate in series [8]: N[C@H](CCC(=O)O)C(=O)O
Described as §1.

B1: Glutamate racemase (Helicobacter pylori (strain ATCC 700392 / 26695) (Campylobacterpylori)), P56068 (protein)
chain: MKIGVFDSGVGGFSVLKSLLKAQLFDEIIYYGDSARVPYGTKDPTTIKQFGLEALDFFKPHQIKLLIVACNTASALALEEMQKHSKIPVVGVIEPSILAIKRQVKDKNAPILVLGTKATIQSNAYDNALKQQGYLNVSHLATSLFVPLIEESILEGELLETCMRYYFTPLEILPEVVILGCTHFPLIAQKIEGYFMEHFALSTPPLLIHSGDAIVEYLQQNYALKKNACAFPKVEFHASGDVVWLEKQAKEWLKL
The Km is the concentration of substrate that gives half-maximal velocity. A word on the kcat: it is the maximal rate divided by the concentration of active sites. For the protein B1, in series [1], the Km was found to be 740 µM and the kcat was found to be 63 min⁻¹. Moreover, in series [2], the Km turned out to be 63 µM and the kcat is 12 min⁻¹.

B2: Glutamate racemase (Helicobacter pylori (strain ATCC 700392 / 26695) (Campylobacterpylori)), P56068 A75T (protein)
chain: MKIGVFDSGVGGFSVLKSLLKAQLFDEIIYYGDSARVPYGTKDPTTIKQFGLEALDFFKPHQIKLLIVACNTASTLALEEMQKHSKIPVVGVIEPSILAIKRQVKDKNAPILVLGTKATIQSNAYDNALKQQGYLNVSHLATSLFVPLIEESILEGELLETCMRYYFTPLEILPEVVILGCTHFPLIAQKIEGYFMEHFALSTPPLLIHSGDAIVEYLQQNYALKKNACAFPKVEFHASGDVVWLEKQAKEWLKL
Consider B2, for which the Km in series [3] was 7.43 mM; in series [4], 275 µM. Moreover, the kcat is 107 min⁻¹ in series [3] and 3.9 min⁻¹ in series [4].

B3: Glutamate racemase (Helicobacter pylori (strain ATCC 700392 / 26695) (Campylobacterpylori)), P56068 E151K (protein)
chain: MKIGVFDSGVGGFSVLKSLLKAQLFDEIIYYGDSARVPYGTKDPTTIKQFGLEALDFFKPHQIKLLIVACNTASALALEEMQKHSKIPVVGVIEPSILAIKRQVKDKNAPILVLGTKATIQSNAYDNALKQQGYLNVSHLATSLFVPLIEKSILEGELLETCMRYYFTPLEILPEVVILGCTHFPLIAQKIEGYFMEHFALSTPPLLIHSGDAIVEYLQQNYALKKNACAFPKVEFHASGDVVWLEKQAKEWLKL
Consider B3, for which, in series [5], the Km worked out at 7.36 mM and the kcat amounted to 136 min⁻¹. Further, in series [6], the Km worked out at 282 µM and the kcat was 5 min⁻¹.

B4: Glutamate racemase (Enterococcus faecalis (strain ATCC 700802 / V583)), Q836J0 (protein)
chain: MSNQEAIGLIDSGVGGLTVLKEALKQLPNERLIYLGDTARCPYGPRPAEQVVQFTWEMADFLLKKRIKMLVIACNTATAVALEEIKAALPIPVVGVILPGARAAVKVTKNNKIGVIGTLGTIKSASYEIAIKSKAPTIEVTSLDCPKFVPIVESNQYRSSVAKKIVAETLQALQLKGLDTLILGCTHYPLLRPVIQNVMGSHVTLIDSGAETVGEVSMLLDYFDIAHTPEAPTQPHEFYTTGSAKMFEEIASSWLGIENLKAQQIHLGGNEND
Regarding B4, in series [7], the Michaelis constant (Km) came to 1200 µM and the kcat came out at 1500 min⁻¹. Also, in series [8], the Km worked out at 250 µM and the kcat was found to be 704 min⁻¹.
